Reference: patent US20030032785, “High-affinity oligonucleotide ligands to vascular endothelial growth factor (VEGF)” (published 2003)

Target: VEGF165 (vascular endothelial growth factor, 165 aa form) (Homo sapiens, UniProt P15692-4 P15692-4:27-191)
Assay: filter
Details: tags: gift of N. Ferrara, Genentech; chain copies: 2 stated
Description: Nitrocellulose Filter Binding Assays. Oligonucleotides bound to proteins can be effectively separated from the unbound species by filtration through nitrocellulose membrane filters (Yarus, M. and Berg, P. (1970) Anal. Biochem. 35:450-465; Lowary, P. T. and Uhlenbeck, O. C. (1987) Nucleic Acids Res. 15:10483-10493; Tuerk, C. and Gold, L. (1990) supra). Nitrocellulose filters (0.2 μm pore size, Schleicher and Schuell, Keene, N.H.) were secured on a filter manifold and washed with 4-10 ml of buffer; Following incubations of ³²P labeled RNA with serial dilutions of the protein for 10 min at 37° C. in buffer (PBS) containing 0.01% human serum albumin (HSA), the solutions were applied to the filters under gentle vacuum in […] aliquots and washed with 5 ml of PBS. The filters were then dried under an infrared lamp and counted in a scintillation counter.
To this end, certain ligands were synthesized and tested for binding affinity. The binding studies were performed using the protocols described in Example 1.

Chain of VEGF165 (vascular endothelial growth factor, 165 aa form) (P15692 other isoform, or with tags, fused parts or gaps): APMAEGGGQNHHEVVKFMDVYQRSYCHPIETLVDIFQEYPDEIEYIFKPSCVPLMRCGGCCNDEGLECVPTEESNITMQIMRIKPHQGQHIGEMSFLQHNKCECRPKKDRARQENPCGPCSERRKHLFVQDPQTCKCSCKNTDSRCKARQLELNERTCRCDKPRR

B1: NX-203 (ssRNA)
RNA: ACCCUGAUGGUAGACGCCGGGGUG
modifications: 2'-NH2 at all C and U; G9,A12,A14 2:1 mixture 2'-OMe:2'-OH
In the case of B1, the Kd is reported as 0.2 nM.
